Drawing on patent US20180265594A1, this text covers EC50 (read off the curve) for one molecule.

Assay [1] addresses αHGF S2gG (HGF-specific 2-piece Surrobody). The experiment in a line: capture ELISA: anti-VpreB1 IgG (2460B04 IgG1) coated, S2gG diluted in 50% mouse serum, detected with HRP-goat anti-E tag antibody; the concentration is that of S2gG.
For assay [2], the target named is αHGF S3gG (HGF-specific 3-piece Surrobody). The experiment in a line: capture ELISA: anti-VpreB1 IgG (2460B04 IgG1) coated, S3gG diluted in 50% human or 50% monkey serum; the concentration is that of S3gG.
Assay [3] has as its target αHGF S2gG (HGF-specific 2-piece Surrobody). The experiment in a line: capture ELISA: anti-VpreB1 IgG (2460B04 IgG1) coated, S2gG diluted in 50% human or 50% monkey serum, detected with HRP-goat anti-E tag antibody; the concentration is that of S2gG.
Assay [4] shares this target. The experiment in a line: capture ELISA: anti-VpreB1 IgG (2460B04 IgG1) coated, S2gG diluted without serum, detected with HRP-goat anti-E tag antibody; the concentration is that of S2gG. For orientation: ELISA stands for enzyme-linked immunosorbent assay.
Assay [5] concerns the target αHGF S3gG (HGF-specific 3-piece Surrobody). The experiment in a line: capture ELISA: anti-VpreB1 IgG (2460B04 IgG1) coated, S3gG diluted in 50% mouse serum; the concentration is that of S3gG.
For assay [6] the target is unchanged. Kind of assay: capture ELISA: anti-VpreB1 IgG (2460B04 IgG1) coated, S3gG diluted without serum; the concentration is that of S3gG.

B1: anti-human VpreB1 IgG1 (2460B04 IgG1) (antibody, V domains shown)
VH: EVQLVESGGGLVKPGGSLRLSCAASGFTFSNFEMNWVRQAPGKGLEWVSGISSNGRYINYADSVKGRFTISRDNAKNSLYLQMNSLRAEDTAVYYCARVVDFDQDYNGFDYWGQGTLVTVSS
VL: DIQLTQSPSFLSASVGDRVTITCRASQGISTDLNWYQQKPGKAPKLLIYAASNLESGVPSRFSGSGSGTEFTLTISSLQPEDFATYYCQQSYNWPYTFGGGTKVEIK
modifications: Used unlabeled, biotin-, DIG- or HRP-labeled; the letters do not carry the labels.
A word on the EC50 (read off the curve): it is the midpoint of the concentration-response curve. For the molecule B1, the EC50 (read off the curve) in assay [1] was determined as 20 ng/mL; in assay [2], 6 ng/mL; in assay [3], 6 ng/mL; in assay [4], 4 ng/mL; in assay [5], 20 ng/mL; in assay [6], 4 ng/mL.
